Data from the RNAGym collection of RNA variant scans (doi:10.7554/elife.80360).

B1: HDV Ribozyme (parent)
chain: GGCCGGCAUGGUCCCAGCCUCCUCGCUGGCGCCGGCUGGGCAACAUUCCGAGGGGACCGUCCCCUCGGUAAUGGCGAAUGGGACCCA

Variants of: B1
Assay: self-cleavage, relative activity (ratio to wild type); higher = more cleavage; co-transcriptional

Row | Variant | self-cleavage
1 | C24U C64A | 0.848
2 | C4U C48A | 0.706
3 | C33U C58U | 0.917
4 | G17A C21A | 0.0297
5 | C41U G81U | 0.205
6 | C33A U60A | 0.193
7 | C15A G39U | 0.177
8 | C21A U37C | 0.196
9 | U20G A42G | 0.138
10 | G6C U65G | 0.115
11 | G28C G50C | 0.0437
12 | G10A A83G | 0.258
13 | G54A C62G | 1.06
14 | C41U G82C | 0.136
15 | U27A G54U | 0.845
16 | G10C C33G | 0.145
17 | G25A G81U | 0.112
18 | C7U G50C | 0.689
19 | U46C C49G | 0.554
20 | U47C G54C | 0.554
21 | C32A G35A | 0.122

Row | Variant | self-cleavage
22 | C22G G29U | 0.217
23 | A43C C84U | 0.135
24 | G34C A51U | 0.141
25 | G50U A51G | 0.956
26 | G11A U79A | 0.0652
27 | C49U U72A | 0.965
28 | C30U G31U | 0.0268
29 | C7G C75A | 0
30 | C3G G76A | 0.984
31 | G55C A70C | 0.932
32 | G29C G53C | 0.0462
33 | G1A U12A | 0.0415
34 | G6C C64U | 0.244
35 | G11C A87G | 0.34
36 | C30U A43C | 0.158
37 | U20G G73C | 0
38 | G5U U47G | 0.222
39 | C57U G59A | 1.07
40 | U27G G28U | 0.612
41 | A8C G35C | 0
42 | U12G C21A | 0

Row | Variant | self-cleavage
43 | C4A C7U | 0.0519
44 | C57A C58A | 1.07
45 | C36G U79C | 0.154
46 | G11A G40C | 0.0623
47 | A56C C84U | 0.718
48 | G25A G54A | 0.242
49 | G10A A45G | 0.598
50 | C44A G80A | 0.169
51 | C7U G31A | 0.876
52 | C41G G76A | 0.991
53 | C3G G40C | 0.339
54 | C14U G59A | 1.31
55 | C14A C41U | 0.539
56 | C22G A71C | 0.151
57 | G1A C48G | 0.199
58 | A45C G82U | 0.397
59 | G31A G54A | 0.295
60 | A43C A87G | 0.306
61 | G39U C61A | 0.589
62 | C61G C86A | 1.03
63 | C49G U69A | 0.798

Row | Variant | self-cleavage
64 | G28U G74C | 0.0992
65 | G6A C66G | 0.456
66 | G10A A43C | 0.176
67 | C15U U47A | 1.23
68 | G52C G82U | 0.283
69 | G11A C15G | 0.138
70 | U20C G73A | 0
71 | U46G G81C | 0.175
72 | C64A C84G | 0.536
73 | G11A G38A | 0.102
74 | U47G C84U | 0.346
75 | C21A G76U | 0.0906
76 | G31U G76A | 0.369
77 | C24A G50U | 0.641
78 | C19A C58U | 0.168
79 | G11U A87U | 0.199
80 | G17A C85U | 0.641
81 | G31U C58G | 0.282
82 | G11A U46A | 0.148
83 | G52A C75G | 0.227
84 | A83C C86U | 0.376
